This is an account of results in doi:10.64898/2025.12.10.693482, “Mechanism of NanR transcriptional activation of sialic acid metabolism in Streptococcus pneumoniae” (bioRxiv, 2025).

For orientation: Kd means the free concentration of one partner at which half of the binding sites on the other are occupied at equilibrium, for simple one-to-one binding. Read a high Kd as lower affinity. As usually defined, the stoichiometry N is a count of units in the complex or per binding partner.

Where “and” joins values, the source holds several entries; their conditions need not be identical. Equal entries are not always repeated. Where only a bound is given, the exact number is not on record here.

One series deals with T1, SpNanR (NanR) (Streptococcus pneumoniae, UniProt A0A4M6CQT5).
T1 construct: gene ybbH; recombinant, full-length SpNanR
T1 sequence (A0A4M6CQT5 entry or part of it): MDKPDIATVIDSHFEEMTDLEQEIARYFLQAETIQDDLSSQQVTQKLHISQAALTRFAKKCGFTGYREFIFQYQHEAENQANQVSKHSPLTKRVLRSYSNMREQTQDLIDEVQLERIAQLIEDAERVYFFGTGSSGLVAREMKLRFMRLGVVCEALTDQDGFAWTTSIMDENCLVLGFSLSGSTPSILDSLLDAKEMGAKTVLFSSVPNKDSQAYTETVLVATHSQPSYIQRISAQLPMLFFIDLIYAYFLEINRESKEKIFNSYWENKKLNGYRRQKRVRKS
Kind of series: ITC (n = […]), DSF, crystal structures (8TX9, 8V4V), sedimentation velocity. The series is classed as binding.

In a further series the target is T2, SpNanR D160A (NanR) (Streptococcus pneumoniae, UniProt A0A4M6CQT5, D160A).
T2 construct: gene ybbH; recombinant SpNanR variant
T2 sequence (A0A4M6CQT5 whole entry D160A): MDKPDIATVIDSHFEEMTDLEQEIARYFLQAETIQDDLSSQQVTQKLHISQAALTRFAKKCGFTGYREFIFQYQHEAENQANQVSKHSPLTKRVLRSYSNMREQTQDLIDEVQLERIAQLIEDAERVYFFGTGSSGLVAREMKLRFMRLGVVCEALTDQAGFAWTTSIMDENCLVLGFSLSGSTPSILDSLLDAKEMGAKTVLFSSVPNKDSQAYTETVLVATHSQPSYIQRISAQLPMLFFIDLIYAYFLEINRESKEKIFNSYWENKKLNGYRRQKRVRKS
Description: DSF thermal shift (comparable to wild type) and tetramer stabilization by sedimentation velocity. The format is binding.

Series [1] concerns the molecule itself. Description: SEC-SAXS; small-angle X-ray scattering with in-line size exclusion chromatography, SpNanR without N-acetylmannosamine-6-phosphate. For orientation: In gel filtration, larger molecules generally elute earlier.
Series [2] concerns the molecule itself. Description: AUC; sedimentation velocity, SpNanR 0.27–153.5 μM, with 2 mM N-acetylmannosamine-6-phosphate, 20 mM Tris-HCl pH 8.0, 300 mM NaCl, 20 °C; tetramer to dimers.
Series [3] concerns the molecule itself. Description: AUC; sedimentation velocity, SpNanR 4.3–227.7 μM, no N-acetylmannosamine-6-phosphate, 20 mM Tris-HCl pH 8.0, 300 mM NaCl, 20 °C; weight-averaged s fitted to a dimer-tetramer self-association model (Sedphat); tetramer to dimers.
Series [4] concerns the molecule itself. Description: AUC; sedimentation velocity of SpNanR variants and wild type at the same concentration, without N-acetylmannosamine-6-phosphate (Supplementary Figure 14C–E).
Another series addresses SpNanR T18A (Streptococcus pneumoniae, UniProt A0A4M6CQT5 1-283, T18A). Description: MST; up to 5 uM protein; MST: 20 mM Tris-HCl pH 8.0, 300 mM NaCl, 0.05% Tween-20, 20 C, 20 nM FAM-DNA, overnight incubation; AUC: 50 nM FAM-DNA, 0.019-5 uM SpNanR, buffer not given in m. Particulars: protein: recombinant; chain copies: 2; label: 5'-6-FAM on sense strand; blunt 18 bp.
The target of another series is SpNanR R67A (Streptococcus pneumoniae, UniProt A0A4M6CQT5 1-283, R67A). Described as above. The conditions noted are these: protein: recombinant; chain copies: 2; label: 5'-6-FAM on sense strand; blunt 18 bp.
Another series addresses SpNanR R56A (Streptococcus pneumoniae, UniProt A0A4M6CQT5 1-283, R56A). The description is as above. Particulars: protein: recombinant; chain copies: 2; label: 5'-6-FAM on sense strand; blunt 18 bp.

`CC(=O)N[C@@H]1C(O)O[C@H](COP(=O)(O)O)[C@@H](O)[C@@H]1O` (stereo partly shown) [manNAc-6-P, N-acetylmannosamine-6-phosphate] displayed a dissociation constant Kd at SpNanR (NanR) of 20.4 ± 6 µM. In addition, the “DSF thermal shift (comparable to wild type) and tetramer stabilization by sedime” value on SpNanR D160A (NanR) was “it still binds N-acetylmannosamine-6-phosphate and that this sufficiently stabilizes the tetrameric form”.

B1: Streptococcus pneumoniae NanR (SpNanR), wild type (natural protein, UniProt A0ACD7PT65 1-283, looked up)
chain: MDKPDIATIIDSHFEEMTDLEQEIARYFLQAETITDDLSSQQVTQKLHISQAALTRFAKKCGFTGYREFIFQYQHQAENQANQVSKHSPLTKRVLRSYSNMREQTQDLIDEIQLERIAQLIEDAERIYFFGTGSSGLVAREMKLRFMRLGVVCEALTDQDGFAWTTSIMDENCLVLGFSLSGSTPSILDSLLDAKEMGAKTVLFTSVPNKNSQTYTETVLVATHSQPSYIQRISAQLPMLFFIDLIYAYFLEINRESKEKIFNSYWENKKLNGYRRQKRVRKS
notes: NanR, RpiR family transcriptional regulator of Streptococcus pneumoniae; recombinant full-length protein; intact mass 32,611 Da; Cloned into pET30ΔSE; Exists in a dimer-tetramer equilibrium; also called SpNanR^WT
Regarding B1, the “stoichiometry N” value in series [1] is 4 and 2. In addition, the Kd in series [2] was less than 0.2 µM; in [3] it was 97 µM.

B2: SpNanR^R148A (natural protein)
chain: MDKPDIATIIDSHFEEMTDLEQEIARYFLQAETITDDLSSQQVTQKLHISQAALTRFAKKCGFTGYREFIFQYQHQAENQANQVSKHSPLTKRVLRSYSNMREQTQDLIDEIQLERIAQLIEDAERIYFFGTGSSGLVAREMKLRFMALGVVCEALTDQDGFAWTTSIMDENCLVLGFSLSGSTPSILDSLLDAKEMGAKTVLFTSVPNKNSQTYTETVLVATHSQPSYIQRISAQLPMLFFIDLIYAYFLEINRESKEKIFNSYWENKKLNGYRRQKRVRKS
notes: NanR of Streptococcus pneumoniae (WP_000360349.1) with the substitution R148A; Variant of m1; source: E. coli BL21(DE3), purified
As for B2, in series [4], the “stoichiometry N” value amounted to 2.

B3: SpNanR^D160A (natural protein)
chain: MDKPDIATIIDSHFEEMTDLEQEIARYFLQAETITDDLSSQQVTQKLHISQAALTRFAKKCGFTGYREFIFQYQHQAENQANQVSKHSPLTKRVLRSYSNMREQTQDLIDEIQLERIAQLIEDAERIYFFGTGSSGLVAREMKLRFMRLGVVCEALTDQAGFAWTTSIMDENCLVLGFSLSGSTPSILDSLLDAKEMGAKTVLFTSVPNKNSQTYTETVLVATHSQPSYIQRISAQLPMLFFIDLIYAYFLEINRESKEKIFNSYWENKKLNGYRRQKRVRKS
notes: NanR of Streptococcus pneumoniae (WP_000360349.1) with the substitution D160A; Variant of m1; source: E. coli BL21(DE3), purified
For the molecule B3, in series [4], the “stoichiometry N” value is 2.

B4: nanE recognition sequence, FAM-labeled (dsDNA)
DNA 1: TCTGAAAGTACTTTTAGA
DNA 2: TCTAAAAGTACTTTCAGA
As for B4, the binding result with SpNanR T18A, with SpNanR R67A and with SpNanR R56A was “no binding” in each case.
